The data set concerns the target T1, KicGAS (Kaposi sarcoma-associated herpesvirus …, UniProt Q2HR80 1-131).
T1 sequence: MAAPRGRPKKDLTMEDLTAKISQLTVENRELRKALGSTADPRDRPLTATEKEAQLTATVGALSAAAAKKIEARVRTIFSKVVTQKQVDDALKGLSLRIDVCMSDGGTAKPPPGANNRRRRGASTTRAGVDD
The data set is described as follows: fluorescence polarization; Hill n 2.36; EMSA: 20 mM Tris-HCl pH 7.4, 150 mM NaCl, 10% glycerol, on ice, 20 nM FAM-DNA, gel at 4 C; FP: 400 pg/ul FAM-DNA, buffer and temperature not stated; Hill fits. The note with it: protein: recombinant; tags: Avi-His6-SUMO removed (tag-free); label: 5' FAM sense strand; blunt. A general note: In fluorescence polarisation assays a small probe gives low polarisation when free and higher when bound to something large.

B1: VACV72 (dsDNA)
DNA 1: ATCCATCAGAAAGAGGTTTAATATTTTTGTGAGACCATCGAAGAGAGAAAGAGATAAAACTTTTTTACGACT
DNA 2: AGTCGTAAAAAAGTTTTATCTCTTTCTCTCTTCGATGGTCTCACAAAAATATTAAACCTCTTTCTGATGGAT
One may read the Kd as a measure of binding affinity in units of concentration. B1: the Kd turned out to be 130 ± 10 nM.
